US20180111967A1 (PIONEER HI BRED INTERNATIONAL, published 2018)

Biological target: the molecule itself
Experiment: NMR solution structure (self-association, homodimer)
Procedure: For NMR data collection PIP-72Aa (SEQ ID NO: 2) was used at 0.7 mM formulated in 20 mM MES, pH 6.5, 100 mM NaCl, and 5 mM CaCl₂. D₂O and DSS (4,4-dimethyl-4-silapentane-1-sulfonic acid) were added to 10% and 50 μM final concentrations, respectively. This was then loaded into a 4 mm NMR tube (Shigemi). Data collection was at 25° C. on a Bruker 800 MHz spectrometer equipped with a cryo-probe (Monleon, D. et al. 2002, J Struct Funct Genomics 2: 93).
A NOESY peak list containing expected intra-residue, sequential and α-helical medium range NOE peaks was initially generated and manually edited by visual inspection of the simultaneous NOESY (100 ms mixing time) and 13C-edited aromatic NOESY (100 ms mixing time) spectra. NOEs were assigned using matching tolerances of 0.030, 0.025 and 0.40 ppm for indirect 1H, direct 1H and heavy atom 13C/15N, respectively. Subsequent manual peak picking was used to identify remaining, primarily long-range NOEs. In addition, backbone dihedral angle constraints were derived from chemical shifts (Shen, Y. et al. 2009 J Biomol NMR 44:213) for residues located in well-defined secondary structure elements. The initial structure was refined in explicit solvent using standard methods (Linge, J. P. et al. 2003 Proteins-Structure Function and Bioinformatics 50:496).

B1: PIP-72Aa (Pseudomonas Insecticidal Protein-72Aa) polypeptide of SEQ ID NO: 2 (other)
chain: MGITVTNNSSNPIEVAINHWGSDGDTSFFSVGNGKQETWDRSDSRGFVLSLKKNGAQHPYYVQASSKIEVDNNAVKDQGRLIEPLS
modifications: uniformly 15N,13C isotope labeled
notes: Insecticidal protein from Pseudomonas chlororaphis strain SS143D5; For NMR it was expressed in E. coli with an N-terminal His tag, which was removed by proteolysis, so untagged PIP-72Aa was used; also called IPD072Aa
**Q.** Does B1 bind?
**A.** binds
